Assay results: patent US20160187355A1 (AUGUSTA UNIVERSITY RESEARCH INSTITUTE, published 2016)

Assays:
LRP4N-Myc (rat) [1] = target: LRP4N-Myc (rat) (UniProt Q9QYP1); test: solid phase binding of MuSK-AP to coated LRP4, Scatchard plot
LRP4-Myc = target: T1, LRP4-Myc (UniProt Q9QYP1 21-1905); test: solid phase binding: purified LRP4-Myc (name as in the legend) coated on plate, bound AP activity with pNPP
T1 construct: whole, on cells; also called Myc-tagged full length LRP4; not shown: Myc tag of pcDNA3.1-MycHis; His tag of pcDNA3.1-MycHis
T1 sequence (Q9QYP1 21-1905): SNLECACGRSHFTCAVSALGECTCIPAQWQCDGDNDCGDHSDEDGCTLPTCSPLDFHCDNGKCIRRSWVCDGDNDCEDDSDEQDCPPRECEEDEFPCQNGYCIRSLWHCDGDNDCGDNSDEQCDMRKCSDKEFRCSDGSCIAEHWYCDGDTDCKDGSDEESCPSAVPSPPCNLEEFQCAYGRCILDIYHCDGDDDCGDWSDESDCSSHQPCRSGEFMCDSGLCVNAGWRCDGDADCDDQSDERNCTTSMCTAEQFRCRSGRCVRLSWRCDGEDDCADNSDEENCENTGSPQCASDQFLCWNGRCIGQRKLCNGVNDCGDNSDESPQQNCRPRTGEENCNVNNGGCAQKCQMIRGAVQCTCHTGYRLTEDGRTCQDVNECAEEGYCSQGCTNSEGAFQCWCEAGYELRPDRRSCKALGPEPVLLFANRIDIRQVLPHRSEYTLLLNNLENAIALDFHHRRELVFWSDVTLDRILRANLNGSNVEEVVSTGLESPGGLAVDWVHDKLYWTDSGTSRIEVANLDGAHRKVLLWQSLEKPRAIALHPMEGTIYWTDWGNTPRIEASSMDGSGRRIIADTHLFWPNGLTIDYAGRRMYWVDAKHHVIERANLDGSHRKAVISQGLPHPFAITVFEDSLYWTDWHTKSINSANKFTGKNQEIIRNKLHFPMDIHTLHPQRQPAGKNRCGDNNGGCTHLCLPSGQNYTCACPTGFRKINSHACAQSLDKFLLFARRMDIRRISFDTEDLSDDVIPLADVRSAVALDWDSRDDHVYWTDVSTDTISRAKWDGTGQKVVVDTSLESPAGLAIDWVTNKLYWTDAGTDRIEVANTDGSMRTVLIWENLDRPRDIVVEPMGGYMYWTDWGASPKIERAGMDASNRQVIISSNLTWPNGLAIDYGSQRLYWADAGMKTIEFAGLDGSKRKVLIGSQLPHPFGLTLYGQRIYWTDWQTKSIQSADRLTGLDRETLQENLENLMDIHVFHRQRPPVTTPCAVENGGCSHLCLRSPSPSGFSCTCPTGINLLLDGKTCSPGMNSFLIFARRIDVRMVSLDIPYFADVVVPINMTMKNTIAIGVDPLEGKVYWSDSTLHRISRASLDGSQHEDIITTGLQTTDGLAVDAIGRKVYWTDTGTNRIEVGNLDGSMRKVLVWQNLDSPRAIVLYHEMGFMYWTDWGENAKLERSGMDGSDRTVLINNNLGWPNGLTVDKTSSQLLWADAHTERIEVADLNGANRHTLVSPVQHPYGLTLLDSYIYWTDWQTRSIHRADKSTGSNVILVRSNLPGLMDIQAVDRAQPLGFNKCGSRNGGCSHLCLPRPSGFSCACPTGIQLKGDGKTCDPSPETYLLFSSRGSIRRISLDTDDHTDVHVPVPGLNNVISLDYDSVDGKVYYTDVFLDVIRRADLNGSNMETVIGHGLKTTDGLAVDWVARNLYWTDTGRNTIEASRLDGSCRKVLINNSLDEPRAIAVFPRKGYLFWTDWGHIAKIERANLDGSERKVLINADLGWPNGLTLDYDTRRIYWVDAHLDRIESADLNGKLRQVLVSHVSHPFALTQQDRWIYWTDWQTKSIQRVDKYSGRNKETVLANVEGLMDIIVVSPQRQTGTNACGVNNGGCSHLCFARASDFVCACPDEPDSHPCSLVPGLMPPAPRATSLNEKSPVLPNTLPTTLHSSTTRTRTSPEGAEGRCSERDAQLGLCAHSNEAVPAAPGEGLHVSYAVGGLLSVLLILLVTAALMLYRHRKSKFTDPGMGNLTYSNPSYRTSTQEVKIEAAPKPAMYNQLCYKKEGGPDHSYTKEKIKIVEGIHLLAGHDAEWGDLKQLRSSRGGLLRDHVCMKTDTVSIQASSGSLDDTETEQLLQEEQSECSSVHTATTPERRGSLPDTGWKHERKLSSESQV
Protocol: FIG. 6A-G. Direct interaction between LRP4 and MuSK. […] Flag-MuSKect immobilized on beads were incubated with condition media of cells expressing the extracellular domains of LRP4 (LRP4N-Myc) or the empty vector (control) in the presence or absence of neuronal agrin. Precipitated LRP4 was analyzed by immunoblot with anti-Myc antibody. […] FIG. 6B is a quantitative analysis of LRP4N-Myc and Flag-MuSK. Data shown were mean±SEM, n=3; *, p <0.05 in comparison with the no-agrin group. […] Purified LRP4-Myc was coated on Maxi-Sorp Immuno Plates, which were incubated with MuSK-AP. Bound AP was measured with pNPP as substrate. Data shown were mean±SEM. n=4. FIG. 6D is a Scatchard plot of data in FIG. 6C. Y axis represents the ratio of bound to free MuSK-AP whereas X axis represents the concentration of bound MuSK-AP. […] Experiments were done as in FIG. 6A except condition medium of cells expressing the extracellular domain of LRP6 was used. […] HEK293 cells were transfected with LRP4 and/or Flag-MuSK. Lysates were incubated with anti-Flag antibody, and resulting immunocomplex was analyzed for LRP4 and Flag. Lysates were also probed to indicate equal amounts of indicated proteins. […]
Solid phase binding assay. […] Coated wells were incubated with purified AP fusion proteins and the AP activity was measured using pNPP as substrate.

LRP4N-Myc (rat) [2] = target: LRP4N-Myc (rat) (UniProt Q9QYP1); test: solid phase binding of nAgrin-AP to coated LRP4, Scatchard plot
LRP4N-Myc (rat) [3] = target: LRP4N-Myc (rat) (UniProt Q9QYP1); test: solid phase binding: purified LRP4 (legend: LRP4-Myc; paragraph 111: LRP4N-Myc) coated on plate, bound AP activity with pNPP
[4] = target: T2, full length LRP4 (pcDNA-LRP4) (UniProt Q9QYP1 21-1905, limits assumed); test: intact cell binding on transfected C2C12 myoblasts, BCIP/NBT staining quantified
T2 construct: whole, on cells; Expressed in transfected C2C12 myoblasts or HEK293 cells; also called exogenous LRP4
T2 sequence (Q9QYP1 21-1905 limits assumed): as the sequence (Q9QYP1 21-1905) above
Protocol: FIG. 4A-G. Expression of LRP4 enables binding activity for neuronal agrin and MuSK signaling. […] C2C12 myoblasts were transfected by empty vector (control), LRP4 and/or Flag-MuSK. 36 hr after transfection, myoblasts were incubated with AP alone, mAgrin-AP or nAgrin-AP for 90 min at room temperature. Endogenous AP was inactivated by heating and bound AP was visualized in cells by staining with BCIP/NBT. FIG. 4B is a quantification of data in FIG. 4A. Data shown were mean±SEM. n=6; *, P<0.05 in comparison with mAgrin-AP of the same group or nAgrin-AP in the control group. FIG. 4C and FIG. 4D show nAgrin-AP bound to HEK293 cells expressing LRP4, but not those expressing LRP5. HEK293 cells were transfected without (control) or with LRP4-Myc (FIG. 4C) or LRP5-Myc (FIG. 4D). 36 hr after transfection, transfected cells were incubated with nAgrin-AP or mAgrin-AP. In some experiments, control cells were incubated with nAgrin-AP. After heat inactivation of endogenous AP, lysates were assayed for transfected AP using pNPP as substrate. […] In FIG. 4E, lysates were incubated with anti-Flag antibody, and resulting immunocomplex was analyzed with anti-phosphotyrosine antibody 4G10. […] FIG. 4G is a quantitative analysis of data in FIG. 4E and FIG. 4F. MuSK and Abl phosphorylation was quantified by using the ImageJ software. […]

Chain of LRP4N-Myc (rat) (Q9QYP1 21-1723): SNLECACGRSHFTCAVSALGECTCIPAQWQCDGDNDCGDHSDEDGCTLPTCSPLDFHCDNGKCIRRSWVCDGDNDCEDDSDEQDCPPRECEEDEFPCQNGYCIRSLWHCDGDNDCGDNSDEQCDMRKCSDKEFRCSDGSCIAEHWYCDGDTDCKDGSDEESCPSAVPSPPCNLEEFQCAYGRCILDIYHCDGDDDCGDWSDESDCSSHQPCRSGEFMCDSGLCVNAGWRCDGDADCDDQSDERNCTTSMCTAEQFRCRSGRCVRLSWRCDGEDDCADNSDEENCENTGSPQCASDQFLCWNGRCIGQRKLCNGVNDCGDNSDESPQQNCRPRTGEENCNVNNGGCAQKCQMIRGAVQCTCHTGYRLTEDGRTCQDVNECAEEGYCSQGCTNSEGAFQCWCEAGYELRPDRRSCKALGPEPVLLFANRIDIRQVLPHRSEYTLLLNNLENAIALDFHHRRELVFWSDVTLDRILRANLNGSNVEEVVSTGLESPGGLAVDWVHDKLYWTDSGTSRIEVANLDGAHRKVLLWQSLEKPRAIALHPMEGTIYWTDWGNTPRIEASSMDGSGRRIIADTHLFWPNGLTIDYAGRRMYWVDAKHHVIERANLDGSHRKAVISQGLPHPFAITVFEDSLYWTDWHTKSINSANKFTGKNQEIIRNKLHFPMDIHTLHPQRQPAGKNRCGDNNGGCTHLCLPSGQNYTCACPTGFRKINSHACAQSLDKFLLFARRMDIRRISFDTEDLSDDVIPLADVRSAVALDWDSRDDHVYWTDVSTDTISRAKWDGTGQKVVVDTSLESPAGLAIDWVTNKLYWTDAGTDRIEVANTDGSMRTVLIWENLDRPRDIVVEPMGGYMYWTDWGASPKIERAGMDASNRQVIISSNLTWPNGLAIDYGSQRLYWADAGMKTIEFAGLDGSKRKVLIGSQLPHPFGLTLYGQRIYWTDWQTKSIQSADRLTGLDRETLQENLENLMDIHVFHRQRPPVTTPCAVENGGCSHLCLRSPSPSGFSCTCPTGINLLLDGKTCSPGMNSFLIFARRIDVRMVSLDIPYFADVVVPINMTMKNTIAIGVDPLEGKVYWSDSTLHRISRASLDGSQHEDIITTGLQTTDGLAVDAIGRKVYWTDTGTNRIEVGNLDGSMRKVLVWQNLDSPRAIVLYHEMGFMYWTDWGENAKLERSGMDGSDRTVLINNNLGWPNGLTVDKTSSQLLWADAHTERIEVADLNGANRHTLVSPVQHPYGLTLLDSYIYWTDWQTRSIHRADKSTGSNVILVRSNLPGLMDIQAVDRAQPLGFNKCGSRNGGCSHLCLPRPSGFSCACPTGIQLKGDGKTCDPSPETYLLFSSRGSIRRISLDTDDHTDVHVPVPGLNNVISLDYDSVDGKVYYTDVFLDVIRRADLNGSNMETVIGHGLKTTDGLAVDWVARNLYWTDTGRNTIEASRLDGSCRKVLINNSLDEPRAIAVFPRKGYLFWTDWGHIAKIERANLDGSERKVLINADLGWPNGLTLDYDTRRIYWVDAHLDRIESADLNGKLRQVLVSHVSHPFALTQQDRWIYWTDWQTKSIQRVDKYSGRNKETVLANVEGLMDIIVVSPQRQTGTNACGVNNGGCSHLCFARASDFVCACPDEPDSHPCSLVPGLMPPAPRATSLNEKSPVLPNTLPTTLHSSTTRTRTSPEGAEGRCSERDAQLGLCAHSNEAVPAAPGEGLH

## MuSK-AP (from UniProt P05187 23-511) (receptor)
LRP4N-Myc (rat) [1]
  Kd: 0.45 nM
LRP4-Myc
  EC50 (read off the curve): 0.3 nM

## nAgrin-AP (from UniProt P25304 1145-1940) (ligand)
LRP4N-Myc (rat) [2]
  Kd: 0.5 nM
LRP4N-Myc (rat) [3]
  EC50 (read off the curve): 0.4 nM

B1: AP alone (enzyme, human, UniProt P05187 23-511, looked up)
chain: IIPVEEENPDFWNREAAEALGAAKKLQPAQTAAKNLIIFLGDGMGVSTVTAARILKGQKKDKLGPEIPLAMDRFPYVALSKTYNVDKHVPDSGATATAYLCGVKGNFQTIGLSAAARFNQCNTTRGNEVISVMNRAKKAGKSVGVVTTTRVQHASPAGTYAHTVNRNWYSDADVPASARQEGCQDIATQLISNMDIDVILGGGRKYMFRMGTPDPEYPDDYSQGGTRLDGKNLVQEWLAKRQGARYVWNRTELMQASLDPSVTHLMGLFEPGDMKYEIHRDSTLDPSLMEMTEAALRLLSRNPRGFFLFVEGGRIDHGHHESRAYRALTETIMFDDAIERAGQLTSEEDTLSLVTADHSHVFSFGGYPLRGSSIFGLAPGKARDRKAYTVLLYGNGPGYVLKDGARPDVTESESGSPEYRQQSAVPLDEETHAGEDVAVFARGPQAHLVHGVQEQTFIAHVMAFAACLEPYTACDLAPPAGTTDAAHPG
notes: Control protein; also called control (empty pAPtag-5)
[4]
  binding result: no binding (tested: 5 nM (not printed on the sheet))
LRP4-Myc
  binding result: no binding (tested: 1000 nM)
